Reference: publication PMC4654632 (Journal of molecular biology, 2012)

Assay: HPLC sedimentation assay of fibril thermodynamic stability
Format: physicochemical
Settings: from Cr (Ka = 1/Cr), PBS pH 7.4, 25 °C

## wild-type: wild-type amyloid-β 40-residue peptide (Aβ40), made by Fmoc solid-phase synthesis
  ΔG (free energy of association): -7.2 ± 0.2 kcal/mol
